As usually defined, the Kd is the constant that tells how readily two partners part at equilibrium.

The values below come from patent publication US20060078880.

Series [1] has as its system C7.GAT C7 finger-3 helix RSDERKR replaced by TSGNLVR (SEQ 51) (synthetic). Description: EMSA. Particulars: [none]; gel mobility shift; exact target oligo not stated. (In EMSA bound probe runs differently from free probe, usually more slowly.)
For series [2], the system named is C7.GCG (C7) none; finger-3 helix RSDERKR (SEQ 50) (synthetic). The series can be described thus: EMSA. Particulars: CITED Segal 1999, exact target oligo not stated; cited from earlier work.

Take “GATTGGGCG (double strand) [C7.GAT target, finger-2 subsite TGG]”: in series [1], the Kd is 400 nM.

As for “GCGTGGGCG (double strand) [C7 target, finger-2 subsite TGG]”, in series [2], the Kd is 0.5 nM.
